The supplement of paper PMC10065799, “High-throughput profiling of sequence recognition by tyrosine kinases and SH2 domains using bacterial peptide display” (eLife, 2023)

Columns and labels:
Hck = Hck (UniProt P08631); assay: phosphorylation enrichment, bacterial display (enrichment ratio); higher = better substrate or ligand; peptides without Tyr show the background
Fer (mouse) = assay: as above
AncSZ = assay: as above
c-Src = assay: as above
FGFR1 = FGFR1 (UniProt P11362); assay: as above
Fyn = Fyn (UniProt P06241); assay: as above
c-Abl (mouse) = assay: as above
EPHB1 = EPHB1 (UniProt P54762); assay: as above
FGFR3 = FGFR3 (UniProt P22607); assay: as above
MERTK = MERTK (UniProt Q12866); assay: as above
Fes = Fes (UniProt P07332); assay: as above
Jak2 = Jak2 (UniProt O60674); assay: as above
EPHB2 = EPHB2 (UniProt P29323); assay: as above
c-Src SH2 = assay: SH2 binding enrichment of the phosphorylated peptide, bacterial display (enrichment ratio); higher = better substrate or ligand; peptides without Tyr show the background
SHP2-C SH2 = assay: as above
Grb2 SH2 = Grb2 SH2 (UniProt P62993); assay: as above
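Wherever SH2 binding enrichment of the phosphorylated peptide, bacterial display is given: peptide library displayed on the E. coli surface as eCPX fusions, selected cells deep-sequenced, score is each peptide's frequency after selection divided by its frequency in the input.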
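Wherever phosphorylation enrichment, bacterial display is given: 11-residue human phosphosite peptides and single-mutation variants displayed on the E. coli surface, counted by deep sequencing, each peptide's frequency after selection divided by its frequency in the unselected input library; frequency after pTyr selection over input frequency; kinase dosed for 20-30% of maximal phosphorylation in three min.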

Chain of EPHB2 (P29323 whole entry, looked up): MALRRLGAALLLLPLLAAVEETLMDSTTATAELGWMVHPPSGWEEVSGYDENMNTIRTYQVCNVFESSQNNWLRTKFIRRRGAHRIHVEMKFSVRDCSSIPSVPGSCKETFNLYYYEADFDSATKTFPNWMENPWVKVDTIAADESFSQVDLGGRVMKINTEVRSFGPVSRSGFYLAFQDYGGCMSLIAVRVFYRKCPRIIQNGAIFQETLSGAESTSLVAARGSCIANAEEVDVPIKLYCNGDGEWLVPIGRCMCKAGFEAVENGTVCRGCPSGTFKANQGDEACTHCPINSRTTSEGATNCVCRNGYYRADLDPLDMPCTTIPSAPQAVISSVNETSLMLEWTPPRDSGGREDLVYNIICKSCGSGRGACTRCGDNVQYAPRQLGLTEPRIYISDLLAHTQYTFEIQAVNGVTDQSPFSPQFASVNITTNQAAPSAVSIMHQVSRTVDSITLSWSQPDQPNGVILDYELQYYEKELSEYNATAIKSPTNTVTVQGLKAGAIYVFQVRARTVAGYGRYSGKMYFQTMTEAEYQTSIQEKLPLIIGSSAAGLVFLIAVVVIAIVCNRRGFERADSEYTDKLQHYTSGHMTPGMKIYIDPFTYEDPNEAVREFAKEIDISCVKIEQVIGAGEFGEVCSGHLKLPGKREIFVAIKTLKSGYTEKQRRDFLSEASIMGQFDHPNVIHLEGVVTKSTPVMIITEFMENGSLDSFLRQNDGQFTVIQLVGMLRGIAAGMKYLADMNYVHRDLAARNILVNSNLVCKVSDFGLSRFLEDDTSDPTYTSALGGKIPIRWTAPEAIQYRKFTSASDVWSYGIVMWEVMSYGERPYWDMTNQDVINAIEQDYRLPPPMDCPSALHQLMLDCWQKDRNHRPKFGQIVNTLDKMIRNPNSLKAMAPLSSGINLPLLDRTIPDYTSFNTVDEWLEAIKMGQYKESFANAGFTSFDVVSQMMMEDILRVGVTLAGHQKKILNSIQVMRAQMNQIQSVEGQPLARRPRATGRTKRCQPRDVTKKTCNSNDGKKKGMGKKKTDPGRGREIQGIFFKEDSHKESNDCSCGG
Chain of Fyn (P06241 whole entry, looked up): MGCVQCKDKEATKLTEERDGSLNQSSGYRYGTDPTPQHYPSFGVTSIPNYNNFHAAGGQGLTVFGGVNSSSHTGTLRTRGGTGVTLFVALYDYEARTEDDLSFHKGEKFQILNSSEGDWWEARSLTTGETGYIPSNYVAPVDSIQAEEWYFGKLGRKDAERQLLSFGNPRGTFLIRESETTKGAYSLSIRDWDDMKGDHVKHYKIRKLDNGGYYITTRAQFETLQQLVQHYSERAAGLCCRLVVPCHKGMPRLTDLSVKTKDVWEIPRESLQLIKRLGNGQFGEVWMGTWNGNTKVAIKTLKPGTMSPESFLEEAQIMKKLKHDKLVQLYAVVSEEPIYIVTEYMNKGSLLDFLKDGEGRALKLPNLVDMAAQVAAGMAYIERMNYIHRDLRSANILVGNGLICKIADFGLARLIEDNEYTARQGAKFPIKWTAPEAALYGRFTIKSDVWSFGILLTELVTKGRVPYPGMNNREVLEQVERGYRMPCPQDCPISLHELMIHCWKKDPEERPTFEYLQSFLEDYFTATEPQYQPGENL
Chain of FGFR3 (P22607 whole entry, looked up): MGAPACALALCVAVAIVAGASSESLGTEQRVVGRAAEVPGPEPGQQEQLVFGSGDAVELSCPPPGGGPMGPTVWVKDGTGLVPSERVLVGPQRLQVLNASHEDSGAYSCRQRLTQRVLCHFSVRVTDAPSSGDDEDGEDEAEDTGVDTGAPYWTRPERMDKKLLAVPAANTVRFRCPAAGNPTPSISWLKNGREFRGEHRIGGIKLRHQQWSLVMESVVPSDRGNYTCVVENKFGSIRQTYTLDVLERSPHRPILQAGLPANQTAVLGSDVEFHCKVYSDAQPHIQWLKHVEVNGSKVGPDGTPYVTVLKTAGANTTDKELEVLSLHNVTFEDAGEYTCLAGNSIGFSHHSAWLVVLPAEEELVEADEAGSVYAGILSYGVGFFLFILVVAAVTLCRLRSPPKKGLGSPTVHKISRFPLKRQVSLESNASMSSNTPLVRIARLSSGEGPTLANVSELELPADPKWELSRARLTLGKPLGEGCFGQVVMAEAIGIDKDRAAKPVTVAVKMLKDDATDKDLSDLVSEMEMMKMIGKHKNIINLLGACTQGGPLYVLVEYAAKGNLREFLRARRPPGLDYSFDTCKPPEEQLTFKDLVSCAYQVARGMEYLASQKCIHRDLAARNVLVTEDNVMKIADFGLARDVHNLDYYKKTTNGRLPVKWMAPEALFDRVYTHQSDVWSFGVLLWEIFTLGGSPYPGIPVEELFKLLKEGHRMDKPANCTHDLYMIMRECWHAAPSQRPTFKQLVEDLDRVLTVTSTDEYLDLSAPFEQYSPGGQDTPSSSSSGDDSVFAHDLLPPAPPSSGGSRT
Chain of FGFR1 (P11362 whole entry, looked up): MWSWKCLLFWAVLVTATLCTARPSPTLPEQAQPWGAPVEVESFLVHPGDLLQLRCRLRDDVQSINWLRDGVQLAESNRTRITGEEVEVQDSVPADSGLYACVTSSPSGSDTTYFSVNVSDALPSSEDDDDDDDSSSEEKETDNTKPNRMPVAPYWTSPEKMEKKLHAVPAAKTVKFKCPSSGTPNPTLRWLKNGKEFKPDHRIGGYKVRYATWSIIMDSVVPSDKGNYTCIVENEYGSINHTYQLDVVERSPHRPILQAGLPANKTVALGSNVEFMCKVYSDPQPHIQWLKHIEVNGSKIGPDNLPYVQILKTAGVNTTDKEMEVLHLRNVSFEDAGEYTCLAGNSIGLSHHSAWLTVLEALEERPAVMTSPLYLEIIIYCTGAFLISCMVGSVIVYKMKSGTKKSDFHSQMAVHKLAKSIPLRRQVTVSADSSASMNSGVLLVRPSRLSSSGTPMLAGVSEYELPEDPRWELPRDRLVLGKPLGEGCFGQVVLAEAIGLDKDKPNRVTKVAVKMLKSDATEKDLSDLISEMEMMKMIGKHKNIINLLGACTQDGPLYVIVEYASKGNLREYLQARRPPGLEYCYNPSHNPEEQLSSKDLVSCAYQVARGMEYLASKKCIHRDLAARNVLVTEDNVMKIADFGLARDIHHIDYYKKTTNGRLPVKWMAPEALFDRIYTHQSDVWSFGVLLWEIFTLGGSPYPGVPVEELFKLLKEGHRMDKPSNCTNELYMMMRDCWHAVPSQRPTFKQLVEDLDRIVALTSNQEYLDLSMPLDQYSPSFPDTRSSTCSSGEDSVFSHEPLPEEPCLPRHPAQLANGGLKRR
Chain of MERTK (Q12866 whole entry, looked up): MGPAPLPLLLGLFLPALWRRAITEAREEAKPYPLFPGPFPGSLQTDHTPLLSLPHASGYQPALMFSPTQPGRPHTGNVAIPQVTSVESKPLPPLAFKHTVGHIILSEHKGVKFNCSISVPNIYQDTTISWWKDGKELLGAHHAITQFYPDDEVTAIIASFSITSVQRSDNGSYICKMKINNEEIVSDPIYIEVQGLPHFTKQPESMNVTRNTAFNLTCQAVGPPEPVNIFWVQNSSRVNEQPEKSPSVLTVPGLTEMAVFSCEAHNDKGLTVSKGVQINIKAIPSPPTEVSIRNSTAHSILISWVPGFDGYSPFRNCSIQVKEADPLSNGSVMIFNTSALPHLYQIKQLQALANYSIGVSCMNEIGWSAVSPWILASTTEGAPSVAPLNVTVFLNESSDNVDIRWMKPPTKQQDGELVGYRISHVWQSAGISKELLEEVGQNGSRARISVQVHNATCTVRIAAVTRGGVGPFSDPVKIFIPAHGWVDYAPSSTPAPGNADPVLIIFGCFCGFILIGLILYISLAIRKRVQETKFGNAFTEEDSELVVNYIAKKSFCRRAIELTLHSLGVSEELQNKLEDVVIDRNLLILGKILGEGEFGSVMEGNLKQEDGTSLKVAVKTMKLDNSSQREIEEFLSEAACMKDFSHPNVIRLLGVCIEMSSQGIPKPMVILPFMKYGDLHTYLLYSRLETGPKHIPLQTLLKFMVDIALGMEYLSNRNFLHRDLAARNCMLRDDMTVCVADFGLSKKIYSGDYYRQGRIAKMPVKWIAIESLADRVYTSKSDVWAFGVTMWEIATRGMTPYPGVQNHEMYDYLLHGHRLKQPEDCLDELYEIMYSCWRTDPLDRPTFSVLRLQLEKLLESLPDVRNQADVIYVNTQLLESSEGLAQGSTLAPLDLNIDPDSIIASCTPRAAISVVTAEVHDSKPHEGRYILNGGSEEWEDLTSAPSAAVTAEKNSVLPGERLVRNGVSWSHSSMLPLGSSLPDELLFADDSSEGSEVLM
Chain of Hck (P08631 whole entry, looked up): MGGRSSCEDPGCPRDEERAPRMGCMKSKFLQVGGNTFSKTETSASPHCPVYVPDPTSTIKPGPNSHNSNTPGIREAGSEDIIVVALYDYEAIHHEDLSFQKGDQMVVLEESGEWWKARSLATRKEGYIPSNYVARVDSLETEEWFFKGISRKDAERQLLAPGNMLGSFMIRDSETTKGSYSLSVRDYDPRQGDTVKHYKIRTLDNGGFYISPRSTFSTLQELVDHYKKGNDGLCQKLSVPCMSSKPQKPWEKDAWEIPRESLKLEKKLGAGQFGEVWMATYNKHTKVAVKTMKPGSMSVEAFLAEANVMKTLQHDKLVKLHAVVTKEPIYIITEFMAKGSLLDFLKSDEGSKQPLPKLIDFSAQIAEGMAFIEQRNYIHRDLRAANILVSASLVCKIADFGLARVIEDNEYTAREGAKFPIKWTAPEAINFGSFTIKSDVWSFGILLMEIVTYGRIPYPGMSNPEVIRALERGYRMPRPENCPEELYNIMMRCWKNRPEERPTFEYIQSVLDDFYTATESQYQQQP
Chain of Grb2 SH2 (P62993 whole entry, looked up, the tested form may be a part): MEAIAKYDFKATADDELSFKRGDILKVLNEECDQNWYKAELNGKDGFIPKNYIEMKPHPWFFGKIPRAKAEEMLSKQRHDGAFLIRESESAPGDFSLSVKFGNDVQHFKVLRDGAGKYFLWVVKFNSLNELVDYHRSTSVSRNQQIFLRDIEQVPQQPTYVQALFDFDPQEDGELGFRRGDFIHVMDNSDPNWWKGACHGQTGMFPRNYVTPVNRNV

Sequence | phosphorylation enrichment (Hck) | phosphorylation enrichment (Fer (mouse)) | phosphorylation enrichment (AncSZ) | phosphorylation enrichment (c-Src) | phosphorylation enrichment (FGFR1) | phosphorylation enrichment (Fyn) | phosphorylation enrichment (c-Abl (mouse)) | phosphorylation enrichment (EPHB1) | phosphorylation enrichment (FGFR3) | phosphorylation enrichment (MERTK) | phosphorylation enrichment (Fes) | phosphorylation enrichment (Jak2) | phosphorylation enrichment (EPHB2) | SH2 binding enrichment (c-Src SH2) | SH2 binding enrichment (SHP2-C SH2) | SH2 binding enrichment (Grb2 SH2)
ASENVYVNTAH [CTSC_Y150_I153T] | 0.796 | 0.527 | 0.936 | 0.814 | 0.633 | 0.748 | 0.599 | 0.7 | 0.485 | 0.429 | 0.86 | 0.772 | 0.588 | 1.27 | 1.12 | 7.62
ASFGPYTRVQS [FOXL2_Y258_YF] | 0.483 | 0.409 | 0.61 | 0.481 | 0.527 | 0.515 | 0.449 | 0.524 | 0.494 | 0.498 | 0.606 | 0.669 | 0.381 | 1.43 | 4.01 | 0.655
ATHRGYDSDNP [MMUT_Y146] | 0.471 | 0.418 | 0.586 | 0.365 | 0.377 | 0.404 | 0.548 | 0.342 | 0.472 | 0.363 | 0.731 | 0.523 | 0.444 | 0.536 | 0.533 | 0.998
ATPSQYMTFLH [DYNC2H1_Y2872_R2871Q] | 2.29 | 0.541 | 0.903 | 2.62 | 0.562 | 3.39 | 0.885 | 0.593 | 0.651 | 1.06 | 0.791 | 0.99 | 0.473 | 0.75 | 2.86 | 0.799
ATVQNYLPKCI [A2M_Y817_L815Q] | 0.346 | 0.406 | 0.626 | 0.362 | 0.462 | 0.369 | 0.687 | 0.39 | 0.489 | 0.372 | 0.862 | 0.688 | 0.482 | 0.497 | 0.581 | 0.827
AVARMYGVLPW [PLP1_Y207_D203V] | 3.59 | 0.505 | 0.689 | 2.19 | 0.524 | 2.46 | 0.656 | 0.411 | 0.536 | 0.491 | 0.866 | 0.666 | 0.644 | 0.524 | 0.433 | 0.952
AVDVTYDGHPV [FLNB_Y1020] | 2.78 | 0.925 | 1.11 | 2.55 | 0.497 | 2.3 | 0.705 | 1.09 | 0.63 | 0.429 | 0.982 | 0.724 | 3.74 | 0.444 | 0.476 | 0.803
AVEDQYFRVDC [FHL1_Y207_C209R_YF] | 0.542 | 0.626 | 2.04 | 0.519 | 4.27 | 0.552 | 0.838 | 0.655 | 3.33 | 0.499 | 1.38 | 1.6 | 0.568 | 0.591 | 0.892 | 0.934
AVEDQYYCVDC [FHL1_Y207] | 0.796 | 0.684 | 2.07 | 1.97 | 5.7 | 0.853 | 0.786 | 0.53 | 4.65 | 0.72 | 1.3 | 1.39 | 0.598 | 1.08 | 0.748 | 0.877
AVLSLYASGRT [ACTA1_Y145] | 0.702 | 0.503 | 1.02 | 0.461 | 0.523 | 0.489 | 0.813 | 0.622 | 0.699 | 0.413 | 1.2 | 1.04 | 0.571 | 0.555 | 0.731 | 0.971
AVLVQYFMEHH [PTPN11_Y80_E76V_YF] | 0.448 | 0.484 | 0.934 | 0.421 | 0.466 | 0.503 | 0.638 | 0.638 | 0.813 | 0.429 | 1.15 | 1.07 | 0.613 | 1.19 | 1.51 | 1.37
AYGGGYGGVLT [KRT19_Y65] | 0.605 | 0.477 | 0.583 | 0.573 | 0.456 | 0.442 | 0.485 | 0.461 | 0.645 | 0.372 | 0.574 | 0.485 | 0.458 | 0.401 | 0.614 | 0.623
AYQGKYTPSGQ [ALDOA_Y343_C339Y] | 0.309 | 0.345 | 0.383 | 0.35 | 0.316 | 0.262 | 0.384 | 0.388 | 0.375 | 0.337 | 0.441 | 0.545 | 0.299 | 0.622 | 0.639 | 0.939
CEHRGHLYLAI [TEK_Y897_Y897H] | 0.417 | 0.537 | 1.07 | 0.377 | 0.646 | 0.908 | 0.676 | 0.665 | 0.722 | 0.374 | 1.28 | 0.833 | 0.441 | 1.21 | 1.27 | 1.16
CFCSWYRGWAP [TIMP3_Y195_G190C_YF] | 0.887 | 4.11 | 1.28 | 4.5 | 1.07 | 0.647 | 0.933 | 0.859 | 1.03 | 0.556 | 1.44 | 1.25 | 0.707 | 1.09 | 1.24 | 1.17
CGTPDYIAREI [PRKCG_Y521_P524R] | 0.631 | 0.604 | 1.26 | 0.443 | 0.633 | 0.53 | 0.849 | 0.724 | 0.866 | 0.445 | 1.13 | 1.06 | 0.622 | 0.452 | 0.631 | 0.793
CGTPEYLAPEI [PRKACA_Y205] | 0.633 | 0.679 | 2.65 | 0.535 | 0.718 | 0.531 | 2.42 | 0.893 | 1.06 | 0.463 | 1.57 | 1.51 | 0.757 | 0.421 | 0.586 | 0.87

Sequence | phosphorylation enrichment (Hck) | phosphorylation enrichment (Fer (mouse)) | phosphorylation enrichment (AncSZ) | phosphorylation enrichment (c-Src) | phosphorylation enrichment (FGFR1) | phosphorylation enrichment (Fyn) | phosphorylation enrichment (c-Abl (mouse)) | phosphorylation enrichment (EPHB1) | phosphorylation enrichment (FGFR3) | phosphorylation enrichment (MERTK) | phosphorylation enrichment (Fes) | phosphorylation enrichment (Jak2) | phosphorylation enrichment (EPHB2) | SH2 binding enrichment (c-Src SH2) | SH2 binding enrichment (SHP2-C SH2) | SH2 binding enrichment (Grb2 SH2)
CHKCTYKVTGL | 0.472 | 0.419 | 0.622 | 0.504 | 0.488 | 0.49 | 0.523 | 0.444 | 0.693 | 0.453 | 0.682 | 0.556 | 0.462 | 1.34 | 1.46 | 1.46
CKSIHYDLVFL [COL22A1_Y37_V35I] | 0.686 | 8.93 | 1.49 | 0.562 | 0.651 | 0.574 | 0.936 | 0.751 | 0.895 | 1.51 | 1.55 | 1.36 | 0.755 | 1.06 | 0.573 | 0.736
CPEASYNRSPI [PTAR1_Y42_R41S] | 0.521 | 0.825 | 0.82 | 0.528 | 0.58 | 0.489 | 0.781 | 0.602 | 0.701 | 0.585 | 1.09 | 0.882 | 0.565 | 0.471 | 0.588 | 0.763
CPPEVYAIMRG [NTRK1_Y757] | 2 | 0.51 | 1.24 | 2.39 | 0.455 | 1.25 | 0.695 | 0.976 | 0.765 | 1.16 | 1.12 | 0.87 | 0.564 | 0.814 | 0.9 | 1.3
CQGSLYPSNHD [LRIG1_Y996] | 0.611 | 0.501 | 0.879 | 0.571 | 0.531 | 0.535 | 0.567 | 0.582 | 0.551 | 0.391 | 0.979 | 1.03 | 0.531 | 0.518 | 0.568 | 0.781
CQNRFYDAKVR [FKBP6_Y188_R183C] | 0.475 | 0.426 | 0.794 | 0.416 | 0.495 | 0.373 | 0.684 | 0.445 | 0.669 | 0.477 | 0.897 | 0.869 | 0.485 | 0.684 | 0.914 | 0.941
CRWKRYQRSHD [GDPD5_Y30] | 0.527 | 0.469 | 0.675 | 0.579 | 0.481 | 0.472 | 0.482 | 0.458 | 0.508 | 0.487 | 0.563 | 0.573 | 0.516 | 0.483 | 0.604 | 0.679
CTAIHYNYMCN [TP53_Y234_T231A] | 0.429 | 0.401 | 0.707 | 0.441 | 0.479 | 0.386 | 0.48 | 0.628 | 0.581 | 0.398 | 0.727 | 0.569 | 0.506 | 6.38 | 2.87 | 1.3
CTTIDYNFMCN [TP53_Y234_H233D_YF] | 0.528 | 0.597 | 1.27 | 0.874 | 0.882 | 0.527 | 1.04 | 0.474 | 0.911 | 0.529 | 1.27 | 1.21 | 0.651 | 0.931 | 0.661 | 0.874
CTTIHDNFMCN [TP53_Y234_Y234D_YF] | 0.54 | 0.465 | 0.841 | 0.436 | 0.516 | 0.441 | 0.631 | 0.544 | 0.592 | 0.37 | 0.898 | 0.849 | 0.512 | 0.895 | 0.605 | 0.949
CTTIHYNYMCS [TP53_Y234_N239S] | 0.531 | 0.713 | 0.848 | 0.538 | 0.647 | 0.44 | 0.715 | 0.992 | 0.639 | 0.545 | 0.835 | 0.636 | 0.62 | 4.92 | 2.75 | 1.43
CTTIHYNYMCY [TP53_Y234_N239Y] | 0.647 | 1.25 | 0.946 | 2.17 | 3.76 | 1.15 | 0.78 | 5.43 | 1.95 | 0.804 | 1 | 0.957 | 3.42 | 3.88 | 3.28 | 1.65
CTTIPYNFMCN [TP53_Y234_H233P_YF] | 0.561 | 0.424 | 0.945 | 0.753 | 0.515 | 0.48 | 0.528 | 0.449 | 0.726 | 0.482 | 0.926 | 0.718 | 0.514 | 2.07 | 0.994 | 0.927
DAPVVYLGSFR [PRAG1_Y132] | 0.575 | 0.448 | 0.773 | 0.449 | 0.418 | 0.436 | 0.743 | 0.402 | 0.52 | 0.476 | 0.906 | 0.73 | 0.449 | 0.53 | 5.6 | 1.08
DASENYFVTDS [TMEM240_Y77] | 0.659 | 0.517 | 1.41 | 0.492 | 1.35 | 0.444 | 0.86 | 1.44 | 1.44 | 0.516 | 1.23 | 1.37 | 0.886 | 0.576 | 0.759 | 0.977
DCAAIYGSEPE [AKR1A1_Y50_N52S] | 0.844 | 0.599 | 1.14 | 1.4 | 0.453 | 0.968 | 0.791 | 0.572 | 0.726 | 0.474 | 1.34 | 1.46 | 0.578 | 0.633 | 0.553 | 0.927
